Measurements taken from the Human Domainome abundance scans (Beltran et al. 2025).
± gives the uncertainty stated by the source.

B1: COUP transcription factor 1, residues 83 to 159; numbered along this chain, P10589 (parent)
chain: HIECVVCGDKSSGKHYGQFTCEGCKSFFKRSVRRNLTYTCRANRNCPIDQHHRNQCQYCRLKKCLKVGMRREAVQRG

Variants of: B1
Test: abundance fitness (aPCA) (normalised: wild type 0, dead -1); higher = more abundant; growth selection in yeast, the domain comes from the species named
Conditions: Homo sapiens

Going from R30E to S31V, the abundance fitness falls from 0.054 ± 0.13 to -0.155 ± 0.061.

Going from S31I to S31R, the abundance fitness falls from 0.014 ± 0.42 to -0.955 ± 0.12.

Going from S31K to R53P, the abundance fitness rises from -0.688 ± 0.41 to 0.111 ± 0.088.

R53V and R53E are within error of each other in abundance fitness: -0.069 ± 0.06 for the first, 0.018 ± 0.07 for the second.

Going from H51L to H51V, the abundance fitness falls from 0.059 ± 0.044 to -0.051 ± 0.041.

Compared with H51W, K63Y is lower in abundance fitness: 0.012 ± 0.048 for the first, -0.277 ± 0.097 for the second.

Going from K63D to K63T, the abundance fitness rises from -0.874 ± 0.14 to -0.356 ± 0.057.

K63H and N45C are within error of each other in abundance fitness: -0.114 ± 0.085 for the first, -0.202 ± 0.16 for the second.

First: V6R
Second: V6A
The abundance fitness of the first is lower: -0.974 ± 0.13 for the first, -0.458 ± 0.079 for the second.

First: V6W
Second: Y58G
The abundance fitness of the first is lower: -0.545 ± 0.11 for the first, -0.18 ± 0.034 for the second.

Y58T and C7S are within error of each other in abundance fitness: -0.774 ± 0.09 for the first, -0.803 ± 0.11 for the second.

C7D and C7F are within error of each other in abundance fitness: -0.867 ± 0.21 for the first, -0.942 ± 0.38 for the second.

Going from C7N to P47K, the abundance fitness rises from -0.562 ± 0.18 to -0.035 ± 0.079.

Compared with P47M, P47N is lower in abundance fitness: -0.267 ± 0.071 for the first, -0.679 ± 0.22 for the second.

R71A and R71Q are within error of each other in abundance fitness: 0.007 ± 0.035 for the first, 0.049 ± 0.047 for the second.

S26C and S26D are within error of each other in abundance fitness: -0.127 ± 0.12 for the first, -0.32 ± 0.35 for the second.

First: K14W
Second: L65H
The abundance fitness of the first is lower: -0.423 ± 0.25 for the first, 0.102 ± 0.07 for the second.

First: N54T
Second: K25P
The abundance fitness of the first is higher: -0.059 ± 0.059 for the first, -0.492 ± 0.14 for the second.

Q75H and Q75D are within error of each other in abundance fitness: 0.222 ± 0.071 for the first, 0.211 ± 0.054 for the second.

First: Q75R
Second: Q75E
The abundance fitness of the first is lower: -0.159 ± 0.034 for the first, 0.104 ± 0.04 for the second.

First: Q75G
Second: N35L
The abundance fitness of the first is higher: 0.084 ± 0.032 for the first, -0.513 ± 0.14 for the second.

N35H and N35P are within error of each other in abundance fitness: -0.256 ± 0.26 for the first, -0.402 ± 0.2 for the second.

First: N35R
Second: T20A
The abundance fitness of the first is lower: -0.196 ± 0.087 for the first, -0.051 ± 0.042 for the second.

Compared with T20I, T20E is lower in abundance fitness: 0.232 ± 0.086 for the first, -0.116 ± 0.051 for the second.

V67C and V67H are within error of each other in abundance fitness: -0.088 ± 0.069 for the first, -0.157 ± 0.088 for the second.

First: V67A
Second: V67Q
The abundance fitness of the first is lower: -0.099 ± 0.043 for the first, 0.036 ± 0.046 for the second.

First: V74Y
Second: C21M
The abundance fitness of the first is higher: -0.353 ± 0.079 for the first, -1.01 ± 0.22 for the second.

Compared with E22L, E22I is lower in abundance fitness: -0.089 ± 0.066 for the first, -0.495 ± 0.21 for the second.

Y38R and Y38D are within error of each other in abundance fitness: -0.662 ± 0.11 for the first, -0.509 ± 0.32 for the second.

E3S and K66R are within error of each other in abundance fitness: -0.052 ± 0.064 for the first, -0.021 ± 0.034 for the second.

Compared with K66M, C59K is lower in abundance fitness: 0.055 ± 0.043 for the first, -0.871 ± 0.14 for the second.

Q55F and R34Q are within error of each other in abundance fitness: 0.069 ± 0.063 for the first, 0.018 ± 0.11 for the second.

Compared with R34A, H1E is lower in abundance fitness: 0.268 ± 0.066 for the first, -0.007 ± 0.18 for the second.

H52P and H52V are within error of each other in abundance fitness: 0.09 ± 0.043 for the first, 0.023 ± 0.042 for the second.

Going from H52N to T37G, the abundance fitness rises from -0.1 ± 0.055 to 0.06 ± 0.054.

T37L and T39M are within error of each other in abundance fitness: -0.057 ± 0.052 for the first, -0.126 ± 0.18 for the second.

First: T39V
Second: R41A
The abundance fitness of the first is lower: 0.013 ± 0.067 for the first, 0.207 ± 0.049 for the second.

R41N and R41K are within error of each other in abundance fitness: 0.21 ± 0.17 for the first, 0.301 ± 0.075 for the second.

Going from G13N to H15M, the abundance fitness rises from -0.068 ± 0.11 to 0.548 ± 0.39.

H15N and H15A are within error of each other in abundance fitness: 0.148 ± 0.24 for the first, -0.029 ± 0.098 for the second.

First: F19E
Second: L61W
The abundance fitness of the first is higher: 0.166 ± 0.069 for the first, -0.05 ± 0.041 for the second.

Compared with V32I, V32P is lower in abundance fitness: -0.089 ± 0.11 for the first, -0.393 ± 0.13 for the second.

V32N and V32M are within error of each other in abundance fitness: -0.196 ± 0.25 for the first, 0.072 ± 0.074 for the second.

Q50V and Q50W are within error of each other in abundance fitness: -0.086 ± 0.041 for the first, -0.06 ± 0.05 for the second.

M69E and M69T are within error of each other in abundance fitness: -0.723 ± 0.083 for the first, -0.719 ± 0.095 for the second.

Q57P and Q57G are within error of each other in abundance fitness: -0.042 ± 0.083 for the first, 0.07 ± 0.047 for the second.

First: Q57E
Second: Q57K
The abundance fitness of the first is higher: 0.183 ± 0.06 for the first, -0.341 ± 0.11 for the second.

R76M and A42W are within error of each other in abundance fitness: -0.047 ± 0.058 for the first, -0.123 ± 0.086 for the second.

First: A42V
Second: A42G
The abundance fitness of the first is lower: 0.09 ± 0.062 for the first, 0.217 ± 0.048 for the second.

A42R and A42H are within error of each other in abundance fitness: -0.111 ± 0.054 for the first, -0.068 ± 0.34 for the second.

G17K and G17I are within error of each other in abundance fitness: -0.452 ± 0.17 for the first, -0.515 ± 0.28 for the second.

First: G17M
Second: G17Q
The abundance fitness of the first is lower: -0.703 ± 0.42 for the first, 0.044 ± 0.091 for the second.

C56Q and C56P are within error of each other in abundance fitness: -0.82 ± 0.28 for the first, -1 ± 0.27 for the second.

First: G77R
Second: G77A
The abundance fitness of the first is lower: -0.058 ± 0.046 for the first, 0.12 ± 0.061 for the second.

L36G and L36S are within error of each other in abundance fitness: -0.17 ± 0.052 for the first, -0.147 ± 0.083 for the second.

First: C64V
Second: C64Y
The abundance fitness of the first is lower: -0.823 ± 0.072 for the first, -0.537 ± 0.12 for the second.

First: C64I
Second: D49L
The abundance fitness of the first is lower: -0.928 ± 0.25 for the first, -0.122 ± 0.052 for the second.

Going from R60N to R60I, the abundance fitness rises from -0.416 ± 0.1 to -0.227 ± 0.076.

R60D and R60S are within error of each other in abundance fitness: -0.535 ± 0.11 for the first, -0.56 ± 0.064 for the second.

First: C46L
Second: V5P
The abundance fitness of the first is lower: -0.492 ± 0.078 for the first, 0.381 ± 0.32 for the second.

V5G and K29I are within error of each other in abundance fitness: 0.012 ± 0.056 for the first, -0.22 ± 0.2 for the second.

First: K29A
Second: Y16T
The abundance fitness of the first is higher: -0.079 ± 0.042 for the first, -0.274 ± 0.11 for the second.

Y16S and Y16C are within error of each other in abundance fitness: -0.047 ± 0.07 for the first, 0.074 ± 0.12 for the second.

Going from K62P to K62W, the abundance fitness rises from -0.573 ± 0.11 to -0.162 ± 0.049.

Compared with K62H, K62I is higher in abundance fitness: -0.198 ± 0.083 for the first, 0.189 ± 0.068 for the second.

C40I and F27E are within error of each other in abundance fitness: -0.496 ± 0.32 for the first, -0.519 ± 0.15 for the second.

K10G and I2C are within error of each other in abundance fitness: -0.114 ± 0.037 for the first, -0.186 ± 0.47 for the second.

First: I2G
Second: I2Y
The abundance fitness of the first is lower: -0.927 ± 0.17 for the first, 0.237 ± 0.32 for the second.

First: I2N
Second: I2Q
The abundance fitness of the first is higher: 0.05 ± 0.1 for the first, -0.714 ± 0.41 for the second.

C4W and C4I are within error of each other in abundance fitness: -0.965 ± 0.28 for the first, -0.998 ± 0.14 for the second.

Compared with Q18A, F28C is lower in abundance fitness: 0.098 ± 0.057 for the first, -0.757 ± 0.21 for the second.

F28M and F28P are within error of each other in abundance fitness: -0.591 ± 0.15 for the first, -1.04 ± 0.33 for the second.

F28L and F28S are within error of each other in abundance fitness: -0.754 ± 0.14 for the first, -0.813 ± 0.14 for the second.

Compared with F28Q, R70P is higher in abundance fitness: -0.809 ± 0.36 for the first, -0.161 ± 0.061 for the second.

Compared with R70Y, R70M is higher in abundance fitness: -0.323 ± 0.12 for the first, 0.173 ± 0.095 for the second.

C24I and C24K are within error of each other in abundance fitness: -0.509 ± 0.28 for the first, -0.697 ± 0.12 for the second.

C24S and C24E are within error of each other in abundance fitness: -0.901 ± 0.13 for the first, -1.1 ± 0.17 for the second.

Going from C24P to I48F, the abundance fitness rises from -0.609 ± 0.12 to -0.11 ± 0.087.

Compared with I48D, G68S is lower in abundance fitness: -0.302 ± 0.11 for the first, -0.593 ± 0.068 for the second.

R44F and R44V are within error of each other in abundance fitness: -0.207 ± 0.11 for the first, -0.292 ± 0.048 for the second.

D9M and D9S are within error of each other in abundance fitness: 0.065 ± 0.081 for the first, -0.02 ± 0.075 for the second.

Going from D9G to D9C, the abundance fitness falls from -0.057 ± 0.049 to -0.625 ± 0.46.

Going from D9P to S12T, the abundance fitness rises from -0.863 ± 0.24 to 0.165 ± 0.047.

G8C showed an abundance fitness of -0.182 ± 0.16.
